Key:
Test in all cases: cell-based or functional assay
[1] = target: HIV-1 Env of pseudovirus 263-8 (HIV-1)
[2] = target: HIV-1 Env of pseudovirus 9004SS_A3_4 (HIV-1)
[3] = target: HIV-1 Env of pseudovirus 928-28 (HIV-1)
[4] = target: HIV-1 Env of pseudovirus T257-31 (HIV-1)
[5] = target: HIV-1 Env of pseudovirus 0815.v3.c3 (HIV-1)
[6] = target: HIV-1 Env of pseudovirus 231965.c01 (HIV-1)
[7] = target: HIV-1 Env of pseudovirus 231966.c02 (HIV-1)
[8] = target: HIV-1 Env of pseudovirus 235-47 (HIV-1)
[9] = target: HIV-1 Env of pseudovirus 3016.v5.c45 (HIV-1)
[10] = target: HIV-1 Env of pseudovirus 3103.v3.c10 (HIV-1)
[11] = target: HIV-1 Env of pseudovirus 3301.v1.c24 (HIV-1)
[12] = target: HIV-1 Env of pseudovirus 3817.v2.c59 (HIV-1)
[13] = target: HIV-1 Env of pseudovirus 6041.v3.c23 (HIV-1)
[14] = target: HIV-1 Env of pseudovirus 620345.c01 (HIV-1)
[15] = target: HIV-1 Env of pseudovirus 6480.v4.c25 (HIV-1)
[16] = target: HIV-1 Env of pseudovirus 6540.v4.c1 (HIV-1)
[17] = target: HIV-1 Env of pseudovirus 6545.v4.c1 (HIV-1)
[18] = target: HIV-1 Env of pseudovirus 6811.v7.c18 (HIV-1)
[19] = target: HIV-1 Env of pseudovirus 6952.v1.c20 (HIV-1)
[20] = target: HIV-1 Env of pseudovirus A07412M1.vrc12 (HIV-1)
[21] = target: HIV-1 Env of pseudovirus BJOX015000.11.5 (HIV-1)
[22] = target: HIV-1 Env of pseudovirus BJOX025000.01.1 (HIV-1)
[23] = target: HIV-1 Env of pseudovirus BJOX028000.10.3 (HIV-1)
[24] = target: HIV-1 Env of pseudovirus C1080.c03 (HIV-1)
[25] = target: HIV-1 Env of pseudovirus C3347.c11 (HIV-1)
[26] = target: HIV-1 Env of pseudovirus P0402_c2_11 (HIV-1)
[27] = target: HIV-1 Env of pseudovirus R1166.c01 (HIV-1)
[28] = target: HIV-1 Env of pseudovirus R2184.c04 (HIV-1)
[29] = target: HIV-1 Env of pseudovirus T251-18 (HIV-1)
[30] = target: HIV-1 Env of pseudovirus T278-50 (HIV-1)
[31] = target: HIV-1 Env of pseudovirus X1193_c1 (HIV-1)
[32] = target: HIV-1 Env of pseudovirus X1254_c3 (HIV-1)
[33] = target: HIV-1 Env of pseudovirus X1632_S2_B10 (HIV-1)
[34] = target: HIV-1 Env of pseudovirus X2088_c9 (HIV-1)
[35] = target: HIV-1 Env of pseudovirus X2131_C1_B5 (HIV-1)
[36] = target: HIV-1 Env of pseudovirus R3265.c06 (HIV-1)

NIH 45-46 (antibody)
IC50 [1]: 0.05 µg/mL
IC80 [1]: 0.1 µg/mL
IC50 [2]: 0.18 µg/mL
IC80 [2]: 0.65 µg/mL
IC50 [3]: 0.1 µg/mL
IC80 [3]: 0.39 µg/mL
IC50 [4]: 0.23 µg/mL
IC80 [4]: 1.11 µg/mL

VRC07 (antibody)
IC50 [1]: 0.103 µg/mL
IC80 [1]: 0.282 µg/mL
IC50 [2]: 0.218 µg/mL
IC80 [2]: 0.75 µg/mL
IC50 [3]: 0.278 µg/mL
IC80 [3]: 0.957 µg/mL
IC50 [4]: 0.421 µg/mL
IC80 [4]: 3.17 µg/mL

10-1074 (antibody)
IC50 neutralization (TZM.bl) [5]: 0.03 µg/mL
IC80 neutralization (TZM.bl) [5]: 0.138 µg/mL
IC50 neutralization (TZM.bl) [6]: > 50 µg/mL
IC80 neutralization (TZM.bl) [6]: > 50 µg/mL
IC50 neutralization (TZM.bl) [7]: > 50 µg/mL
IC80 neutralization (TZM.bl) [7]: > 50 µg/mL
IC50 neutralization (TZM.bl) [8]: 0.05 µg/mL
IC80 neutralization (TZM.bl) [8]: 0.163 µg/mL
IC50 neutralization (TZM.bl) [9]: > 50 µg/mL
IC80 neutralization (TZM.bl) [9]: > 50 µg/mL
IC50 neutralization (TZM.bl) [10]: 0.037 µg/mL
IC80 neutralization (TZM.bl) [10]: 0.101 µg/mL
IC50 neutralization (TZM.bl) [11]: 0.013 µg/mL
IC80 neutralization (TZM.bl) [11]: 0.042 µg/mL
IC50 neutralization (TZM.bl) [12]: 3.15 µg/mL
IC80 neutralization (TZM.bl) [12]: 14.9 µg/mL
IC50 neutralization (TZM.bl) [13]: > 50 µg/mL
IC80 neutralization (TZM.bl) [13]: > 50 µg/mL
IC50 neutralization (TZM.bl) [14]: > 50 µg/mL
IC80 neutralization (TZM.bl) [14]: > 50 µg/mL
IC50 neutralization (TZM.bl) [15]: 0.009 µg/mL
IC80 neutralization (TZM.bl) [15]: 0.041 µg/mL
IC50 neutralization (TZM.bl) [16]: > 50 µg/mL
IC80 neutralization (TZM.bl) [16]: > 50 µg/mL
IC50 neutralization (TZM.bl) [17]: > 50 µg/mL
IC80 neutralization (TZM.bl) [17]: > 50 µg/mL
IC50 neutralization (TZM.bl) [18]: 0.002 µg/mL
IC80 neutralization (TZM.bl) [18]: 0.01 µg/mL
IC50 neutralization (TZM.bl) [19]: 0.037 µg/mL
IC80 neutralization (TZM.bl) [19]: 0.138 µg/mL
IC50 neutralization (TZM.bl) [20]: < 0.001 µg/mL
IC80 neutralization (TZM.bl) [20]: 0.048 µg/mL
IC50 neutralization (TZM.bl) [21]: > 50 µg/mL
IC80 neutralization (TZM.bl) [21]: > 50 µg/mL
IC50 neutralization (TZM.bl) [22]: > 50 µg/mL
IC80 neutralization (TZM.bl) [22]: > 50 µg/mL
IC50 neutralization (TZM.bl) [23]: > 50 µg/mL
IC80 neutralization (TZM.bl) [23]: > 50 µg/mL
IC50 neutralization (TZM.bl) [24]: > 50 µg/mL
IC80 neutralization (TZM.bl) [24]: > 50 µg/mL
IC50 neutralization (TZM.bl) [25]: > 50 µg/mL
IC80 neutralization (TZM.bl) [25]: > 50 µg/mL
IC50 neutralization (TZM.bl) [26]: 0.012 µg/mL
IC80 neutralization (TZM.bl) [26]: 0.039 µg/mL
IC50 neutralization (TZM.bl) [27]: > 50 µg/mL
IC80 neutralization (TZM.bl) [27]: > 50 µg/mL
IC50 neutralization (TZM.bl) [28]: > 50 µg/mL
IC80 neutralization (TZM.bl) [28]: > 50 µg/mL
IC50 neutralization (TZM.bl) [29]: 1.08 µg/mL
IC80 neutralization (TZM.bl) [29]: 7.39 µg/mL
IC50 neutralization (TZM.bl) [30]: 2.15 µg/mL
IC80 neutralization (TZM.bl) [30]: 18.3 µg/mL
IC50 neutralization (TZM.bl) [31]: 0.083 µg/mL
IC80 neutralization (TZM.bl) [31]: 0.475 µg/mL
IC50 neutralization (TZM.bl) [32]: 0.089 µg/mL
IC80 neutralization (TZM.bl) [32]: 0.297 µg/mL
IC50 neutralization (TZM.bl) [33]: > 50 µg/mL
IC80 neutralization (TZM.bl) [33]: > 50 µg/mL
IC50 neutralization (TZM.bl) [34]: 0.003 µg/mL
IC80 neutralization (TZM.bl) [34]: 0.014 µg/mL
IC50 neutralization (TZM.bl) [35]: 0.016 µg/mL
IC80 neutralization (TZM.bl) [35]: 0.064 µg/mL

3BNC117 (antibody)
IC50 [1]: 0.005 µg/mL
IC80 [1]: 0.04 µg/mL
IC50 [2]: 0.07 µg/mL
IC80 [2]: 0.18 µg/mL
IC50 [3]: 0.15 µg/mL
IC80 [3]: 0.55 µg/mL
IC50 [4]: 0.06 µg/mL
IC80 [4]: 0.37 µg/mL

8ANC195 (antibody)
IC50 [1]: > 50 µg/mL
IC80 [1]: > 50 µg/mL
IC50 [2]: 0.17 µg/mL
IC80 [2]: 0.81 µg/mL
IC50 [3]: > 50 µg/mL
IC80 [3]: > 50 µg/mL
IC50 [4]: 0.32 µg/mL
IC80 [4]: 3.89 µg/mL

PGT151 (antibody)
IC50 (Titer in TZM.bl cells) [5]: > 50 µg/mL
IC80 (Titer in TZM.bl cells) [5]: > 50 µg/mL
IC50 (Titer in TZM.bl cells) [6]: < 0.001 µg/mL
IC80 (Titer in TZM.bl cells) [6]: 0.012 µg/mL
IC50 (Titer in TZM.bl cells) [7]: 0.025 µg/mL
IC80 (Titer in TZM.bl cells) [7]: 0.183 µg/mL
IC50 (Titer in TZM.bl cells) [8]: 38.1 µg/mL
IC80 (Titer in TZM.bl cells) [8]: > 50 µg/mL
neutralization IC50 [1]: > 50 µg/mL
neutralization IC80 [1]: > 50 µg/mL
IC50 (Titer in TZM.bl cells) [9]: 0.174 µg/mL
IC80 (Titer in TZM.bl cells) [9]: 40.7 µg/mL
IC50 (Titer in TZM.bl cells) [10]: 0.014 µg/mL
IC80 (Titer in TZM.bl cells) [10]: 0.202 µg/mL
IC50 (Titer in TZM.bl cells) [11]: 0.002 µg/mL
IC80 (Titer in TZM.bl cells) [11]: 0.019 µg/mL
IC50 (Titer in TZM.bl cells) [12]: > 50 µg/mL
IC80 (Titer in TZM.bl cells) [12]: > 50 µg/mL
IC50 (Titer in TZM.bl cells) [13]: 0.004 µg/mL
IC80 (Titer in TZM.bl cells) [13]: 0.024 µg/mL
IC50 (Titer in TZM.bl cells) [14]: > 50 µg/mL
IC80 (Titer in TZM.bl cells) [14]: > 50 µg/mL
IC50 (Titer in TZM.bl cells) [16]: 0.006 µg/mL
IC80 (Titer in TZM.bl cells) [16]: 0.03 µg/mL
IC50 (Titer in TZM.bl cells) [17]: 0.004 µg/mL
IC80 (Titer in TZM.bl cells) [17]: 0.026 µg/mL
IC50 (Titer in TZM.bl cells) [18]: > 50 µg/mL
IC80 (Titer in TZM.bl cells) [18]: > 50 µg/mL
IC50 (Titer in TZM.bl cells) [19]: 49.2 µg/mL
IC80 (Titer in TZM.bl cells) [19]: > 50 µg/mL
neutralization IC50 [2]: 0.003 µg/mL
neutralization IC80 [2]: 0.015 µg/mL
neutralization IC50 [3]: > 50 µg/mL
neutralization IC80 [3]: > 50 µg/mL
IC50 (Titer in TZM.bl cells) [20]: 0.246 µg/mL
IC80 (Titer in TZM.bl cells) [20]: > 50 µg/mL
IC50 (Titer in TZM.bl cells) [21]: > 50 µg/mL
IC80 (Titer in TZM.bl cells) [21]: > 50 µg/mL
IC50 (Titer in TZM.bl cells) [22]: > 50 µg/mL
IC80 (Titer in TZM.bl cells) [22]: > 50 µg/mL
IC50 (Titer in TZM.bl cells) [23]: > 50 µg/mL
IC80 (Titer in TZM.bl cells) [23]: > 50 µg/mL
IC50 (Titer in TZM.bl cells) [24]: > 50 µg/mL
IC80 (Titer in TZM.bl cells) [24]: > 50 µg/mL
IC50 (Titer in TZM.bl cells) [25]: > 50 µg/mL
IC80 (Titer in TZM.bl cells) [25]: > 50 µg/mL
IC50 (Titer in TZM.bl cells) [26]: < 0.001 µg/mL
IC80 (Titer in TZM.bl cells) [26]: 0.004 µg/mL
IC50 (Titer in TZM.bl cells) [27]: > 50 µg/mL
IC80 (Titer in TZM.bl cells) [27]: > 50 µg/mL
IC50 (Titer in TZM.bl cells) [28]: > 50 µg/mL
IC80 (Titer in TZM.bl cells) [28]: > 50 µg/mL
IC50 (Titer in TZM.bl cells) [36]: > 50 µg/mL
IC80 (Titer in TZM.bl cells) [36]: > 50 µg/mL
IC50 (Titer in TZM.bl cells) [29]: 0.327 µg/mL
IC80 (Titer in TZM.bl cells) [29]: > 50 µg/mL
neutralization IC50 [4]: 0.003 µg/mL
neutralization IC80 [4]: 0.01 µg/mL
IC50 (Titer in TZM.bl cells) [30]: 0.13 µg/mL
IC80 (Titer in TZM.bl cells) [30]: > 50 µg/mL
IC50 (Titer in TZM.bl cells) [31]: 0.004 µg/mL
IC80 (Titer in TZM.bl cells) [31]: 0.027 µg/mL
IC50 (Titer in TZM.bl cells) [32]: 0.309 µg/mL
IC80 (Titer in TZM.bl cells) [32]: > 50 µg/mL
IC50 (Titer in TZM.bl cells) [33]: 0.061 µg/mL
IC80 (Titer in TZM.bl cells) [33]: > 50 µg/mL
IC50 (Titer in TZM.bl cells) [34]: > 50 µg/mL
IC80 (Titer in TZM.bl cells) [34]: > 50 µg/mL
IC50 (Titer in TZM.bl cells) [35]: 0.007 µg/mL
IC80 (Titer in TZM.bl cells) [35]: 0.036 µg/mL

— US20240117018A1
